Laboratory results from patent US20140087995A1 (published 2014).
Numbered stars: 1 amine (or outer) side, 2 acyl side, 3 side chain; on linkers, the order of the positions; unused ones are H or OH. Bridge positions count the residues as written; N and C are the ends. Side chains are listed from the residue outwards. Ends that are not written are not given here. * marks the point of attachment. C20 diacid = O=C(O)CCCCCCCCCCCCCCCCCCC(=O)*; γGlu = O=C(O)[C@H](CCC(=O)[*:2])N[*:1]; AEEA = NCCOCCOCC(=O)O

T1: rat calcitonin receptor (rat, UniProt P32214 25-516)
T1 construct: whole, on cells; Used as membranes prepared from BHK tk'ts 13 cells transiently transfected with the rat calcitonin receptor (Assay VIII); also called rCTR; rat calcitonin (a) receptor
T1 sequence (looked up): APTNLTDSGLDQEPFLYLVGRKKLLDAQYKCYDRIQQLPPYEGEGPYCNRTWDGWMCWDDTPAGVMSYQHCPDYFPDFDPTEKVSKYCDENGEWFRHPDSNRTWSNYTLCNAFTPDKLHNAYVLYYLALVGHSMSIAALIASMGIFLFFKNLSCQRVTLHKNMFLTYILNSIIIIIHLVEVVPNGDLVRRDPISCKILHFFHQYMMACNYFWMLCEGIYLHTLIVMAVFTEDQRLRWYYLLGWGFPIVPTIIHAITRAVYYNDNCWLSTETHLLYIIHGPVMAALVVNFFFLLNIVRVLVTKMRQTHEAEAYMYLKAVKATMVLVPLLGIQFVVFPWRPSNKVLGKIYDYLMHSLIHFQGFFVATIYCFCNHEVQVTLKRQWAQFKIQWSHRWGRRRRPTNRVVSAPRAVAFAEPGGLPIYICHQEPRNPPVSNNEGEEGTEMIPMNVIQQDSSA

T2: human calcitonin receptor (human, UniProt P30988 25-474)
T2 construct: whole, on cells; Used as membranes prepared from a BHK tk'ts 13 cell line stably transfected with the human calcitonin receptor (Assay VII); also called hCTR; hCT
T2 sequence (looked up): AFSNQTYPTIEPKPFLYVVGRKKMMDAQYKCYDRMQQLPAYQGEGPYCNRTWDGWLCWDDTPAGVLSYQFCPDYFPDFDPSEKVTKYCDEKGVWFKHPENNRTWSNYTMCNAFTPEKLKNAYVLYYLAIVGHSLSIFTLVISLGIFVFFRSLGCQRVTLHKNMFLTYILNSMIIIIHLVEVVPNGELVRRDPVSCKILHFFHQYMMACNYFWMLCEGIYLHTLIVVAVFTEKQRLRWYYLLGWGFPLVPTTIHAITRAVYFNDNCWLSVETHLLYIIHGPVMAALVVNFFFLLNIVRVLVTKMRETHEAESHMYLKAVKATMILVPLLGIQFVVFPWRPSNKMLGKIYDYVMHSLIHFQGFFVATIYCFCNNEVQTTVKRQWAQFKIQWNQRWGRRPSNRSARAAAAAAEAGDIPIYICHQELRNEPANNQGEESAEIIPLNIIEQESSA

T3: rat amylin receptor (rat calcitonin receptor + rat RAMP 3) (rat, UniProt P32214 25-516; Q9JJ73 23-147)
T3 construct: whole, on cells; Used as membranes prepared from BHK tk'ts 13 cells transiently transfected with rat calcitonin receptor and rat RAMP 3 (Assay VI); also called rAmylin-R; rat amylin 3(a) receptor
T3 sequence (looked up) 1: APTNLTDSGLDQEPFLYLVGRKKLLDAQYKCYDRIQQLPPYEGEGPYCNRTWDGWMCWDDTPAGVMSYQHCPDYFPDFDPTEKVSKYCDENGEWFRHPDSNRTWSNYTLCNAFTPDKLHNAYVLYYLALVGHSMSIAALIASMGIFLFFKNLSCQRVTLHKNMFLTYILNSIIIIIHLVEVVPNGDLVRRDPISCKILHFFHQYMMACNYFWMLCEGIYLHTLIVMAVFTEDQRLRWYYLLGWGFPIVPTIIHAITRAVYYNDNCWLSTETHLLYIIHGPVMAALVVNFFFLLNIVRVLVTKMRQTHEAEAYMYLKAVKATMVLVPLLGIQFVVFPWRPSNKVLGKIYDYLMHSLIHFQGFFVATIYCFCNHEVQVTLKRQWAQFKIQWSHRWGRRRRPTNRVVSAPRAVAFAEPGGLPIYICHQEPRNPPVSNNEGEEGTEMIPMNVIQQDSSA
T3 sequence (looked up) 2: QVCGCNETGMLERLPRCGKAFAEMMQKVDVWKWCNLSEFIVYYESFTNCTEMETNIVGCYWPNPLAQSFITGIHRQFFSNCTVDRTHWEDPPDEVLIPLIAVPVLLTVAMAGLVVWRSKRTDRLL


Assays:
rat calcitonin receptor [1] = target: T1, rat calcitonin receptor; assay: IC50 on rat CTR divided by IC50 on rat amylin receptor (Assays VIII/VI)
[2] = target: T2, human calcitonin receptor; assay: IC50 on human CTR divided by IC50 on human amylin receptor (Assays VII/V)
Experimental: The resulting pellet was resuspended, homogenized and centrifuged (20.000 rpm, 15 min) in a buffer containing 20 mM Na-HEPES and 0.1 mM EDTA (pH 7.4, buffer 2). The resulting pellet was resuspended in buffer 2 and protein concentration was measured (BCA protein Assay, Pierce). The homogenate was kept cold during the whole procedure. The membranes were kept at −80° C. until use. The assay was performed in a 384 well Optiplate (PerkinElmer) in a total volume of 40 ul. Membranes were mixed with SPA beads. Final concentration of membranes 35 ng/μL final and SPA beads was 0.05 mg/well. Test-compounds were dissolved in DMSO and further diluted in assay buffer (50 mM Hepes, pH 7.4, 1 mM CaCl2, 5 mM MgCl₂, 0.1% OA and 0.02% Tween20). […] The final mixture was incubated with shaking at 400 rpm for 120 min at 25° C. prior to centrifugation (1500 rpm, 10 min). Samples were analyzed on TopCounter™ (Packard). The IC₅₀ was calculated using (one site binding competition analysis) GraphPad Prism5 as a measure of receptor affinity.
Membranes were prepared in the following way; the cells were rinsed with PBS and incubated with Versene for approximately 5 min before harvesting. The cells were flushed with PBS and the cell-suspension was centrifuged for 5 min at 1000 rpm. Cells were homogenized (Ultrathurrax) in a buffer containing 20 mM Na-HEPES and 10 mM EDTA (pH 7.4) and centrifuged at 20.000 rpm for 15 min. The resulting pellet was resuspended, homogenized and centrifuged (20.000 rpm, 15 min) in a buffer containing 20 mM Na-HEPES and 0.1 mM EDTA (pH 7.4, buffer 2). The resulting pellet was resuspended in buffer 2 and protein concentration was measured (BCA protein Assay, Pierce). The homogenate was kept cold during the whole procedure. The membranes were kept at −80° C. until use. Assay was performed in a 384 well Optiplate (PerkinElmer) in a total volume of 40 ul. Membranes were mixed with SPA beads.

rat calcitonin receptor [3] = target: T1, rat calcitonin receptor; assay: SPA competition with 125I-calcitonin, membranes of BHK cells with rat CTR (Assay VIII)
[4] = target: T3, rat amylin receptor (rat calcitonin …); assay: SPA competition with 125I-rat amylin, membranes of BHK cells with rat CTR + rat RAMP3 (Assay VI)

Ratio rCT/rAmylin binding (rat calcitonin receptor [1]) | Ratio hCT/hAmylin binding [2] | IC50 (rat calcitonin receptor [3]) [nM] | IC50 [4] [nM] | Binder
69.9 | 60.7 | 90.6 | 1.3 | K([AEEA-γGlu-C20 diacid])CNTATCATQRLANFLRHSSPNFGAIPSSTNVGRNTY-NH2 (disulfide 2-7; N-terminus assumed; SMILES CC[C@H](C)[C@H](NC(=O)[C@H](C)NC(=O)CNC(=O)[C@H](Cc1ccccc1)NC(=O)[C@H](CC(N)=O)NC(=O)[C@@H]1CCCN1C(=O)[C@H](CO)NC(=O)[C@H](CO)NC(=O)[C@H](Cc1c[nH]cn1)NC(=O)[C@H](CCCNC(=N)N)NC(=O)[C@H](CC(C)C)NC(=O)[C@H](Cc1ccccc1)NC(=O)[C@H](CC(N)=O)NC(=O)[C@H](C)NC(=O)[C@H](CC(C)C)NC(=O)[C@H](CCCNC(=N)N)NC(=O)[C@H](CCC(N)=O)NC(=O)[C@@H](NC(=O)[C@H](C)NC(=O)[C@@H]1CSSC[C@H](NC(=O)[C@@H](N)CCCCNC(=O)COCCOCCNC(=O)CC[C@H](NC(=O)CCCCCCCCCCCCCCCCCCC(=O)O)C(=O)O)C(=O)N[C@@H](CC(N)=O)C(=O)N[C@@H]([C@@H](C)O)C(=O)N[C@@H](C)C(=O)N[C@@H]([C@@H](C)O)C(=O)N1)[C@@H](C)O)C(=O)N1CCC[C@H]1C(=O)N[C@@H](CO)C(=O)N[C@@H](CO)C(=O)N[C@H](C(=O)N[C@@H](CC(N)=O)C(=O)N[C@H](C(=O)NCC(=O)N[C@@H](CCCNC(=N)N)C(=O)N[C@@H](CC(N)=O)C(=O)N[C@H](C(=O)N[C@@H](Cc1ccc(O)cc1)C(N)=O)[C@@H](C)O)C(C)C)[C@@H](C)O, Analogue of human amylin; also called compound 78)
179 | 146 | 8.79 | 0.049 | K([AEEA-γGlu-C20 diacid])CNTATCATQRLANFLRHSSPNFGAIPSPTPVGSNTY-NH2 (disulfide 2-7; N-terminus assumed; SMILES CC[C@H](C)[C@H](NC(=O)[C@H](C)NC(=O)CNC(=O)[C@H](Cc1ccccc1)NC(=O)[C@H](CC(N)=O)NC(=O)[C@@H]1CCCN1C(=O)[C@H](CO)NC(=O)[C@H](CO)NC(=O)[C@H](Cc1c[nH]cn1)NC(=O)[C@H](CCCNC(=N)N)NC(=O)[C@H](CC(C)C)NC(=O)[C@H](Cc1ccccc1)NC(=O)[C@H](CC(N)=O)NC(=O)[C@H](C)NC(=O)[C@H](CC(C)C)NC(=O)[C@H](CCCNC(=N)N)NC(=O)[C@H](CCC(N)=O)NC(=O)[C@@H](NC(=O)[C@H](C)NC(=O)[C@@H]1CSSC[C@H](NC(=O)[C@@H](N)CCCCNC(=O)COCCOCCNC(=O)CC[C@H](NC(=O)CCCCCCCCCCCCCCCCCCC(=O)O)C(=O)O)C(=O)N[C@@H](CC(N)=O)C(=O)N[C@@H]([C@@H](C)O)C(=O)N[C@@H](C)C(=O)N[C@@H]([C@@H](C)O)C(=O)N1)[C@@H](C)O)C(=O)N1CCC[C@H]1C(=O)N[C@@H](CO)C(=O)N1CCC[C@H]1C(=O)N[C@H](C(=O)N1CCC[C@H]1C(=O)N[C@H](C(=O)NCC(=O)N[C@@H](CO)C(=O)N[C@@H](CC(N)=O)C(=O)N[C@H](C(=O)N[C@@H](Cc1ccc(O)cc1)C(N)=O)[C@@H](C)O)C(C)C)[C@@H](C)O, Analogue of human amylin; also called compound 54)
56.8 | 80 | 38.9 | 0.686 | K([AEEA-γGlu-C20 diacid])CNTATCATQRLANFLRHSSPNFGAIPSSTNVGHNTY-NH2 (disulfide 2-7; N-terminus assumed; SMILES CC[C@H](C)[C@H](NC(=O)[C@H](C)NC(=O)CNC(=O)[C@H](Cc1ccccc1)NC(=O)[C@H](CC(N)=O)NC(=O)[C@@H]1CCCN1C(=O)[C@H](CO)NC(=O)[C@H](CO)NC(=O)[C@H](Cc1c[nH]cn1)NC(=O)[C@H](CCCNC(=N)N)NC(=O)[C@H](CC(C)C)NC(=O)[C@H](Cc1ccccc1)NC(=O)[C@H](CC(N)=O)NC(=O)[C@H](C)NC(=O)[C@H](CC(C)C)NC(=O)[C@H](CCCNC(=N)N)NC(=O)[C@H](CCC(N)=O)NC(=O)[C@@H](NC(=O)[C@H](C)NC(=O)[C@@H]1CSSC[C@H](NC(=O)[C@@H](N)CCCCNC(=O)COCCOCCNC(=O)CC[C@H](NC(=O)CCCCCCCCCCCCCCCCCCC(=O)O)C(=O)O)C(=O)N[C@@H](CC(N)=O)C(=O)N[C@@H]([C@@H](C)O)C(=O)N[C@@H](C)C(=O)N[C@@H]([C@@H](C)O)C(=O)N1)[C@@H](C)O)C(=O)N1CCC[C@H]1C(=O)N[C@@H](CO)C(=O)N[C@@H](CO)C(=O)N[C@H](C(=O)N[C@@H](CC(N)=O)C(=O)N[C@H](C(=O)NCC(=O)N[C@@H](Cc1c[nH]cn1)C(=O)N[C@@H](CC(N)=O)C(=O)N[C@H](C(=O)N[C@@H](Cc1ccc(O)cc1)C(N)=O)[C@@H](C)O)C(C)C)[C@@H](C)O, Analogue of human amylin; also called compound 76)
130 | 104 | 10.9 | 0.084 | K([AEEA-γGlu-C20 diacid])CNTATCATQRLANFLRHSSPNFGAIPPSTPVGSNTY-NH2 (disulfide 2-7, Analogue of human amylin; also called compound 53)
77.2 | 51.8 | 6.25 | 0.081 | K([AEEA-γGlu-C20 diacid])CNTATCATQRLANFLRHSSPNFGAIPPSTNVGPNTY-NH2 (disulfide 2-7; N-terminus assumed; SMILES CC[C@H](C)[C@H](NC(=O)[C@H](C)NC(=O)CNC(=O)[C@H](Cc1ccccc1)NC(=O)[C@H](CC(N)=O)NC(=O)[C@@H]1CCCN1C(=O)[C@H](CO)NC(=O)[C@H](CO)NC(=O)[C@H](Cc1c[nH]cn1)NC(=O)[C@H](CCCNC(=N)N)NC(=O)[C@H](CC(C)C)NC(=O)[C@H](Cc1ccccc1)NC(=O)[C@H](CC(N)=O)NC(=O)[C@H](C)NC(=O)[C@H](CC(C)C)NC(=O)[C@H](CCCNC(=N)N)NC(=O)[C@H](CCC(N)=O)NC(=O)[C@@H](NC(=O)[C@H](C)NC(=O)[C@@H]1CSSC[C@H](NC(=O)[C@@H](N)CCCCNC(=O)COCCOCCNC(=O)CC[C@H](NC(=O)CCCCCCCCCCCCCCCCCCC(=O)O)C(=O)O)C(=O)N[C@@H](CC(N)=O)C(=O)N[C@@H]([C@@H](C)O)C(=O)N[C@@H](C)C(=O)N[C@@H]([C@@H](C)O)C(=O)N1)[C@@H](C)O)C(=O)N1CCC[C@H]1C(=O)N1CCC[C@H]1C(=O)N[C@@H](CO)C(=O)N[C@H](C(=O)N[C@@H](CC(N)=O)C(=O)N[C@H](C(=O)NCC(=O)N1CCC[C@H]1C(=O)N[C@@H](CC(N)=O)C(=O)N[C@H](C(=O)N[C@@H](Cc1ccc(O)cc1)C(N)=O)[C@@H](C)O)C(C)C)[C@@H](C)O, Analogue of human amylin; also called compound 55)
